Measurements taken from article PMC5599116.

Target: recombinant human CD62L (L-selectin) full extracellular region, native 1 signal sequence construct (human)
Test: SPR

Kd: 55 µM
Substance: mucin from porcine stomach type II (PSM-II) (natural protein)
